Laboratory results reported in the supplement of paper PMC10126150.
± gives the standard deviation of the averaged measurements.

System: ATP
Test: switch fluorescence ratio, 500 uM ATP over buffer (Cy3 cluster intensity, sum of 5 cycles each) (fold (ratio)); higher = stronger signal-on switching upon ATP binding; sequences stand for … in TCGTCGGCAGCGTCAGATGTGTATAAGAGACAGTTTTTTTTTTTTTTTTTTTTTTTTT…TC
Conditions: aptamer strand: ATP DNA aptamer (quencher-CACCTGGGGGAGTATTGCGGAGGAAGG + anchor), 100 nM annealed; ATP concentration: 500 uM
In short: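 Between each of five buffer/ATP cycles, the flow-cell was stripped with NaOH and re-annealed. Each cycle imaged Cy3-labelled switching-strand clusters, annealed to 100 nM quencher-labelled ATP aptamer on a modified Illumina MiSeq flow-cell, first in selection buffer and then after 15 min with 500 uM ATP at 22 °C. The fluorescence ratio is summed target-cycle over summed buffer-cycle Cy3 intensity per cluster, averaged per switch-domain sequence, with clusters outside 100-1000 RFU excluded.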
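Note: ATP exposure 15 min at 22 °C before imaging.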

Sequence	switch fluorescence ratio
GTGTATGGGA	0.967 ± 0.033
GTGTCAAGTA	0.961 ± 0.016
GTGTCATGGA	1 ± 0.029
GTGTCCGTGG	1.003 ± 0.0037
GTGTCCTTAT	0.998 ± 0.074
GTGTCGC	0.991 ± 0.047
GTGTCGGATC	1.06 ± 0.023
GTGTCGGGAA	0.9838 ± 0.0023
GTGTGAATGT	1.01 ± 0.021
GTGTGAGGTG	1 ± 0.03
GTGTGAGTTG	0.961 ± 0.022
GTGTGATCCG	1.01 ± 0.049
GTGTGCACTG	0.996 ± 0.029
GTGTGCCGTG	1.01 ± 0.05
GTGTGCGCGT	0.983 ± 0.025
GTGTGCGCTG	1.008 ± 0.0073
GTGTGGATCA	0.9867 ± 0.0093
GTGTGGGGCG	0.962 ± 0.058
GTGTGGGGGT	0.98 ± 0.019
GTGTGGTTTT	1.03 ± 0.015
GTGTGTGGGG	1.01 ± 0.048
GTGTGTTTTT	0.975 ± 0.053
GTGTTATCGT	0.969 ± 0.045

Sequence	switch fluorescence ratio
GTGTTGCCCG	1.07 ± 0.038
GTGTTGCCGA	1 ± 0.079
GTGTTGGGGT	0.986 ± 0.02
GTGTTGTACG	0.999 ± 0.015
GTGTTGTTTT	0.987 ± 0.028
GTGTTTAAA	0.962 ± 0.014
GTGTTTAAGA	1.01 ± 0.026
GTGTTTACTG	1.01 ± 0.054
GTGTTTATCG	0.966 ± 0.016
GTGTTTATGC	0.991 ± 0.0044
GTGTTTTAAA	1 ± 0.037
GTGTTTTAGG	0.96 ± 0.032
GTGTTTTGGT	0.98 ± 0.024
GTGTTTTTCC	1.41 ± 0.49
GTGTTTTTGT	0.9723 ± 0.0083
GTTAAAATTA	1.01 ± 0.015
GTTAAAGGGG	0.983 ± 0.02
GTTAACAGGA	0.985 ± 0.019
GTTAACGACG	1.017 ± 0.0068
GTTAACTTGA	1.01 ± 0.011
GTTAAGGATG	1.012 ± 0.0071
GTTAATAACA	1.011 ± 0.0052
GTTAATAGAA	0.984 ± 0.035

Sequence	switch fluorescence ratio
GTTACAAGCG	0.994 ± 0.018
GTTACAAGGG	0.9883 ± 0.0092
GTTACCTTTT	1.04 ± 0.023
GTTACTGAGG	1.031 ± 0.0017
GTTACTGCTG	1.03 ± 0.043
GTTAGAGATA	0.992 ± 0.015
GTTAGAGGGC	1 ± 0.011
GTTAGAGGGG	1.01 ± 0.033
GTTAGAGGTT	0.999 ± 0.03
GTTAGAGTAT	1 ± 0.012
GTTAGATTGA	0.96 ± 0.041
GTTAGATTGG	0.982 ± 0.013
GTTAGCGCAT	1.04 ± 0.025
GTTAGCTTGA	0.9966 ± 0.00037
GTTAGCTTGC	0.996 ± 0.029
GTTAGGAGGC	0.989 ± 0.062
GTTAGGAGTT	0.941 ± 0.039
GTTAGGCCTG	0.969 ± 0.013
GTTAGGGGGA	1 ± 0.011
GTTAGGGGTG	1.02 ± 0.023
GTTAGGGTTG	1.02 ± 0.045
GTTAGGTATA	0.9975 ± 0.0098
GTTAGGTTTT	1 ± 0.017

Sequence	switch fluorescence ratio
GTTAGTACAG	1.01 ± 0.031
GTTAGTATAA	0.9894 ± 0.0074
GTTAGTCGGT	0.983 ± 0.032
GTTAGTGATG	0.9838 ± 0.003
GTTAGTGGGG	0.992 ± 0.014
GTTAGTGTTG	0.978 ± 0.01
GTTAGTTTTT	0.986 ± 0.02
GTTATAAAGT	0.99 ± 0.024
GTTATAAGTT	1.06 ± 0.027
GTTATAATTG	0.984 ± 0.035
GTTATAGGGT	1.01 ± 0.02
GTTATAGTCG	0.999 ± 0.05
GTTATATAAC	1.03 ± 0.058
GTTATATAGG	0.982 ± 0.046
GTTATGTGGT	0.975 ± 0.0099
GTTATTCCAA	1.03 ± 0.028
GTTCAAATAG	0.9884 ± 0.0095
GTTCAAGGGG	0.983 ± 0.039
GTTCACTGGG	0.994 ± 0.022
GTTCCAAAGC	1.23 ± 0.019
GTTCCCAGTT	0.997 ± 0.017
GTTCCCTTGA	1.02 ± 0.018
GTTCCGGCGT	1.21 ± 0.25

Sequence	switch fluorescence ratio
GTTCCTTGGG	1.01 ± 0.016
GTTCGAAGAC	1.015 ± 0.0023
GTTCGCAAAT	1.09 ± 0.063
GTTCGGGGCT	0.999 ± 0.029
GTTCGGGGGG	1 ± 0.032
GTTCGTATTT	0.997 ± 0.021
GTTCGTCCTC	1.03 ± 0.031
GTTCGTCTTT	1 ± 0.013
GTTCTATGGT	0.998 ± 0.022
GTTCTGAAGG	1.02 ± 0.0029
GTTCTGTCGG	1.002 ± 0.01
GTTCTTGTGT	1.01 ± 0.023
GTTGAACGCG	1.028 ± 0.0015
GTTGAACTTT	1.02 ± 0.046
GTTGAAGTTT	0.9846 ± 0.0073
GTTGAATTGG	0.985 ± 0.026
GTTGACAAAT	1.036 ± 0.01
GTTGACTGGT	0.95 ± 0.016
GTTGAGGGGA	1.01 ± 0.058
GTTGAGGGTT	0.989 ± 0.049
GTTGAGGTTC	1.03 ± 0.035
GTTGATCAAT	1.03 ± 0.031
GTTGATGGAG	0.992 ± 0.0091

Sequence	switch fluorescence ratio
GTTGATGGGA	0.982 ± 0.03
GTTGATGGGG	0.984 ± 0.047
GTTGCATCGA	1.02 ± 0.046
GTTGCCGGGG	1.01 ± 0.015
GTTGCCTTCA	1.14 ± 0.035
GTTGCGGAGT	1 ± 0.021
GTTGCGTGCT	0.969 ± 0.032
GTTGCTAAAT	1 ± 0.03
GTTGCTACTG	1.05 ± 0.041
GTTGCTCTCA	1.01 ± 0.049
GTTGCTGTGG	0.985 ± 0.026
GTTGCTTTTT	0.998 ± 0.035
GTTGGAGCTA	1.036 ± 0.0083
GTTGGAGGAA	0.976 ± 0.0098
GTTGGAGGAG	0.992 ± 0.026
GTTGGAGGAT	0.9843 ± 0.0026
GTTGGATGTA	1.011 ± 0.008
GTTGGATTAA	1 ± 0.046
GTTGGCATGG	1.025 ± 0.0044
GTTGGCGTGA	1.01 ± 0.057
GTTGGGAAGT	0.994 ± 0.038
GTTGGGAGCG	1 ± 0.033
GTTGGGATTG	1.01 ± 0.013

Sequence	switch fluorescence ratio
GTTGGGGCTG	0.973 ± 0.14
GTTGGGGGCG	0.991 ± 0.052
GTTGGGGGG	0.984 ± 0.041
GTTGGGGTTC	0.982 ± 0.027
GTTGGGGTTG	1.01 ± 0.025
GTTGGTAAGA	0.9979 ± 0.0036
GTTGGTATTC	0.9965 ± 0.0086
GTTGGTCGTG	1 ± 0.038
GTTGGTGGGA	0.973 ± 0.025
GTTGGTGTTT	0.985 ± 0.016
GTTGGTTACC	1.01 ± 0.041
GTTGGTTATG	0.99 ± 0.041
GTTGGTTCTT	1 ± 0.039
GTTGTAAAGA	0.98 ± 0.019
GTTGTAACAT	0.99541 ± 0.00081
GTTGTAAGG	1.02 ± 0.025
GTTGTAAGTT	0.978 ± 0.0098
GTTGTATGTA	1 ± 0.049
GTTGTATGTG	0.965 ± 0.047
